Experimental data: paper doi:10.1101/2025.02.04.636414, “The mechanics of a continuous self-assembling surface-layer aids cell division in an archaeon” (bioRxiv, 2025)

Biological target: the molecule itself
Test: cryo-EM imaging of cells; unlabelled purified S-layer proteins added to Vps4 E209Q ΔslaA cells at 75°C for 1 h; cells plunge frozen and imaged (Glacios 200 kV); S-layer lattice seen on the cell surface

B1: exogenous unlabelled S-layer protein SlaA, purified from wild-type S. acidocaldarius DSM639 (natural protein, UniProt Q4J6E5 25-1424, looked up)
chain: ITTTALTPPVSAGGIQAYLLTGSGAPASGLVLFVVNVSNIQVSSSNVTNVISTVVSNIQINAKTENAQTGATTGSVTVRFPTSGYNAYYDSVDKVVFVVVSFLYPYTTTSVNIPLSYLSKYLPGLLTAQPYDETGAQVTSVSSTPFGSLIDTSTGQQILGTNPVLTSYNSYTTQANTNMQEGVVSGTLTSFTLGGQSFSGSTVPVILYAPFIFSNSPYQAGLYNPMQVNGNLGSLSSEAYYHPVIWGRALINTTLIDTYASGSVPFTFQLNYSVPGPLTINMAQLAWIASINNLPTSFTYLSYKFSNGYESFLGIISNSTQLTAGALTINPSGNFTINGKKFYVYLLVVGSTNSTTPVEYVTKLVVEYPSSTNFLPQGVTVTTSSNKYTLPVYEIGGPAGTTITLTGNWYSTPYTVQITVGSTPTLTNYVSQILLKAVAYEGINVSTTQSPYYSTAILSTPPSEISITGSSTITAQGKLTATSASATVNLLTNATLTYENIPLTQYSFNGIIVTPGYAAINGTTAMAYVIGALYNKTSDYVLSFAGSQEPMQVMNNNLTEVTTLAPFGLTLLAPSVPATETGTSPLQLEFFTVPSTSYIALVDFGLWGNLTSVTVSAYDTVNNKLSVNLGYFYGIVIPPSISTAPYNYQNFICPNNYVTVTIYDPDAVLDPYPSGSFTTSSLPLKYGNMNITGAVIFPGSSVYNPSGVFGYSNFNKGAAVTTFTYTAQSGPFSPVALTGNTNYLSQYADNNPTDNYYFIQTVNGMPVLMGGLSIVASPVSASLPSSTSSPGFMYLLPSAAQVPSPLPGMATPNYNLNIYITYKIDGATVGNNMINGLYVASQNTLIYVVPNGSFVGSNIKLTYTTTDYAVLHYFYSTGQYKVFKTVSVPNVTANLYFPSSTTPLYQLSVPLYLSEPYYGSPLPTYIGLGTNGTSLWNSPNYVLFGVSAVQQYLGFIKSISVTLSNGTTVVIPLTTSNMQTLFPQLVGQELQACNGTFQFGISITGLEKLLNLNVQQLNNSILSVTYHDYVTGETLTATTKLVALSTLSLVAKGAGVVEFLLTAYPYTGNITFAPPWFIAENVVKQPFMTYSDLQFAKTNPSAILSLSTVNITVVGLGGKASVYYNSTSGQTVITNIYGQTVATLSGNVLPTLTELAAGNGTFTGSLQFTIVPNNTVVQIPSSLTKTSFAVYTNGSLAIVLNGKAYSLGPAGLFLLPFVTYTGSAIGANATAIITVSDGVGTSTTQVPITAENFTPIRLAPFQVPAQVPLPNAPKLKYEYNGSIVITPQQQVLKIYVTSILPYPQEFQIQAFVYEASQFNVHTGSPTAAPVYFSYSAVRAYPALGIGTSVPNLLVYVQLQGISNLPAGKYVIVLSAVPFAGGPVLSEYPAQLIFTNVTLTQ
modifications: highly glycosylated
notes: S-layer protein SlaA, Sulfolobus acidocaldarius DSM639, gene saci2355; endogenous protein extracted from the cell surface; The purified preparation also holds SlaB (mass spectrometry, Coomassie gel); also called unlabelled exogeneous S-layer proteins; purified S-layer proteins
binding result: binds
